In patent US20120309692A1:
One block for each substance: values may come before it.

Target: recombinant human glandular kallikrein 2 (hK2) (human) (UniProt P20151)
Assay: cell-based or functional assay

SLPI, sequence (P03973 26-132 limits assumed): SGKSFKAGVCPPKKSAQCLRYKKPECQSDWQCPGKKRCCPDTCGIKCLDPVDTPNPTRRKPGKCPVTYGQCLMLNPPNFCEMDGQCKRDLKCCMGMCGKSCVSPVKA

hK2 Activity (%) of inhibitor-free control, inhibitor at 5 µM: 0%
Substance: PPACK (peptide)

hK2 Activity (%) of inhibitor-free control, inhibitor at 0.08 µM: 92%
hK2 Activity (%) of inhibitor-free control, inhibitor at 4 µM: 35%
Substance: SLPI (from UniProt P03973 26-132)

hK2 Activity (%) of inhibitor-free control, inhibitor at 100 µM: 33%
hK2 Activity (%) of inhibitor-free control, inhibitor at 500 µM: 10%
Substance: antipain (peptide)

hK2 Activity (%) of inhibitor-free control, inhibitor at 100 µM: 12%
Substance: leupeptin (peptide)
